This test addresses NES–Venus–mGsi (nuclear export sequence–Venus–mini G protein mGsi). As to the kind of experiment: BRET with mini G protein V-mGsi (net BRET pH profile). The following applies: read off a plot. In general terms: Bioluminescence resonance energy transfer reports proximity on the nanometre scale.
The mark [1] stands for this setting: 150 mM K+ (no Na+), pH 6.5 point.
Where [2] appears, read: 150 mM K+ (no Na+), pH 8.5 point.

In the case of “GPR65–Rluc8 (wild type) (from UniProt Q8IYL9) E142Q”, the response is, setting by setting: under setting [1], 0.063 netBRET; under setting [2], 0.052 netBRET; (150 mM Na+, pH 6.5 point) 0.06 netBRET; (150 mM Na+, pH 8.5 point) 0.034 netBRET.

Take “GPR68–Rluc8 (wild type) (from UniProt Q15743) E149Q”: the response under setting [1] was found to be 0.029 netBRET; the response under setting [2] was 0.026 netBRET; the response (150 mM Na+, pH 6.5 point) stood at 0.028 netBRET; the response (150 mM Na+, pH 8.5 point) is 0.018 netBRET.

In the case of “GPR4–Rluc8 (wild type) (from UniProt P46093) D63N; D282N”, the response runs as follows: under setting [1], 0.0057 netBRET; under setting [2], 0.0026 netBRET; (150 mM Na+, pH 6.5 point) 0.0068 netBRET; (150 mM Na+, pH 8.5 point) 0.0022 netBRET.

As for “GPR68–Rluc8 (wild type) (from UniProt Q15743) D67N; D282N”, the response under setting [1] stood at 0.0073 netBRET; the response under setting [2] amounted to 0.0037 netBRET; the response (150 mM Na+, pH 6.5 point) stood at 0.006 netBRET; the response (150 mM Na+, pH 8.5 point) turned out to be 0.0023 netBRET.

As to “GPR65–Rluc8 (wild type) (from UniProt Q8IYL9) D60N; D286N”, the response is, setting by setting: under setting [1], 0.033 netBRET; under setting [2], 0.019 netBRET; (150 mM Na+, pH 6.5 point) 0.032 netBRET; (150 mM Na+, pH 8.5 point) 0.02 netBRET.

Take “GPR4–Rluc8 (wild type) (from UniProt P46093) E145Q”: the response worked out at 0.032 netBRET under setting [1]; 0.023 netBRET under setting [2]; 0.032 netBRET (150 mM Na+, pH 6.5 point); 0.013 netBRET (150 mM Na+, pH 8.5 point).
